For test [1], the target named is T1, full-length human Nav1.7 fused at its N-terminus to GFP, expressed in HEK293 cells (human, UniProt Q15858 1-1988).
T1 construct: Voltage-gated sodium channel alpha subunit; In the Western blot it stood as denatured cell lysate; also called hNav 1.7-GFP-HEK293; Nav 1.7-GFP-HEK293; not shown: green fluorescent protein (GFP) at the N-terminus
Briefly: flow cytometry; % stained hNav1.7-GFP-HEK293 minus parental HEK293. As for the experimental part: The binding of anti-Naᵥ 1.7 human antibodies to full-length Naᵥ 1.7 expressed in HEK293 cells was determined by flow cytometry (FACS). HEK293 cells were stably-transfected with full-length human Nav1.7 fused at its N-terminus to the green fluorescent protein (GFP) to generate cell line hNaᵥ 1.7-GFP-HEK293. Antibody binding to the transfected cells overexpressing Naᵥ 1.7 was compared to binding to the parental HEK293 cell line. To perform the binding experiments, adherent cells were collected using 1 mM EDTA in PBS, washed and re-suspended in cold PBS containing 5% FBS. For each binding experiment, the anti-Naᵥ 1.7 antibody (at concentrations ranging from 1 nM to 13 nM), was added to 250,000 cells in 500 μL of PBS with 5% FBS. After incubation for 20 minutes on ice, the secondary antibody, recognizing either human-Fc and conjugated to cyanine 5 (Cy5) or recognizing mouse-Fc and conjugated to allophyocyanin (APC), was then added to the cell mixture at a final secondary antibody concentration of 1.7 nM. After incubating for 20 minutes on ice, the cells were resuspended in PBS+5% FBS and then sorted and analyzed on a flow cytometer to determine relative binding by the candidate antibodies. For FACS analysis, gating was applied to examine only healthy live cells in the antibody binding experiments, and percentage stained was recorded. Staining of secondary antibodies alone to Naᵥ 1.7-GFP-HEK293 cells gave low background signals (1-2%). Specific binding was measured as the percent binding to Naᵥ 1.7-GFP-HEK293 cells minus percent binding to parental HEK293 cells.

The target in test [2] is T2, N-Term Biotin Nav1.7 (3-1) peptide, mulatta (mulatta (monkey), not fully specified; N-terminal biotin attached via a G4S linker).
T2 construct: Synthetic peptide; also called Mulatta Nav1.7 3-1 N-term biotin; monkey
T2 peptide: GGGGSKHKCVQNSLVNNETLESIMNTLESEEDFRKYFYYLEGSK
Briefly: SPR, captured antibody, peptide analyte. As for the experimental part:
(§1) The binding affinities of anti-Naᵥ 1.7 antibodies to Naᵥ 1.7 loop peptides were determined by Biacore. For monovalent kinetic experiments, antibodies were captured through the Fc region via a goat anti-Fc-coupled biosensor surface, and the peptides (as analyte) were injected over this captured antibody surface. For bivalent (avidity-driven) kinetic experiments, biotinylated peptides corresponding to the Naᵥ 1.7 3-1, 3-3, or paddle loop sequences were captured on a NeutrAvidin sensor surface, and anti-Naᵥ 1.7 antibodies (as analyte) were injected over this surface. Following the capture step, each analyte was individually injected at several concentrations over its respective capture surface, and changes in bound surface units (RU) were monitored. The dissociation rate is independent of the concentration of analyte used in the experiment, and the dissociation rate constant (kd) was determined from the change in antibody-bound analyte RU over time. The Biacore kinetic data were obtained using a double referencing procedure. The double referencing was conducted by first subtracting any interaction of the analyte over the reference surface (i.e., the anti-Fc coupled surface alone or the NeutrAvidin surface alone), thereby correcting for nonspecific binding to capture surface and for refractive index changes. Control buffer injections (no analyte) over the antibody- or peptide-captured surfaces were also performed to allow subtraction of RU signal changes resulting from the natural dissociation of captured binding partner from the sensor surface. The kinetic parameters were obtained by globally fitting the data for all concentrations tested for a given peptide or antibody to a 1:1 binding model using Biacore T100 Evaluation Software version 2.0.2. The KD was calculated as the dissociation rate constant divided by the association rate constant (KD=kd/kₐ). The dissociative half-life (t_{1/2}) was calculated from the dissociation rate constant (t_{1/2}=In2/kd).
Background: SPR reads the build-up and loss of mass on a sensor chip optically.

For test [3], the target named is T3, Native Nav1.7 (3-1) peptide, human (human).
T3 construct: Synthetic peptide (Celtek), unbiotinylated; also called Human Nav1.7 3-1 native; Nav1.7 3-1 native peptide
T3 peptide: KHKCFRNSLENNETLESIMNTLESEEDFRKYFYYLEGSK
Briefly: SPR, captured antibody, peptide analyte. As for the experimental part:
as §1

Test [4] addresses T4, N-Term Biotin Nav1.7 (3-1) peptide, mouse (mouse, not fully specified; N-terminal biotin attached via a G4S linker).
T4 construct: Synthetic peptide; also called Mouse Nav1.7 3-1 N-term biotin
T4 peptide: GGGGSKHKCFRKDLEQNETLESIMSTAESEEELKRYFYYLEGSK
Briefly: SPR, captured antibody, peptide analyte. How it is done: as §1

For test [5], the target named is T5, Native Nav1.7 (3-1) peptide, rat (rat).
T5 construct: Synthetic peptide; also called Rat Nav1.7 3-1 native
T5 peptide: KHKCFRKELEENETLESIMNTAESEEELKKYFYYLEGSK
Description: SPR, captured antibody, peptide analyte. How it is done: as §1

Test [6] addresses T6, C-term Biotin Nav1.7 (3-1) peptide, human (human, not fully specified; C-terminal biotin attached via a G4S linker).
T6 construct: Synthetic peptide; also called Human Nav1.7 3-1 C-term biotin
T6 peptide: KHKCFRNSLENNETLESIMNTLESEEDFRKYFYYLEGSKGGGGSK
Briefly: SPR, captured biotin-peptide, antibody analyte. As for the experimental part:
as §1

In test [7] the target is T1, full-length human Nav1.7 fused at its …. Briefly: cell-based or functional assay.
Test [8] deals with T2, N-Term Biotin Nav1.7 (3-1) peptide, …. Briefly: ELISA on coated peptide, antibody 1 ug/ml, OD450 grade. As for the experimental part: (§2) Anti-Naᵥ 1.7 antibodies were tested for their ability to bind to the Naᵥ 1.7 peptides. The various peptides were coated overnight onto 96-well Nunc Immunosorp plates at a concentration of 4 μg/mL in PBS, followed by blocking for 1 hour in a suitable blocking agent. For biotinylated peptides, avidin was first coated on Nunc Immunosorp plates at 2 μg/mL in PBS overnight, followed by blocking as described, and the plate was then coated with biotinylated peptides at a concentration of 0.4 μg/mL and incubated for 1 hour at room temperature. Purified anti-Naᵥ 1.7 antibodies were diluted to a final concentration of 0.1 μg/mL and 1.0 μg/mL and added to the wells of the coated microtiter plates followed by incubation for 1 hour at room temperature. Bound antibodies were detected with horseradish peroxidase (HRP) conjugated anti-mouse or anti-human IgG (Jackson Immuno Research Lab, West Grove, Pa.) depending on the antibody species and developed by colorimetric response using tetramethylbenzidine (TMB) substrate (BD Biosciences). Absorbance was read at OD₄₅₀ on a plate reader for 0.1 second.
(§3) Values in Table 11 represent absolute binding ranges (at OD450) to plate-coated peptides for antibodies added at 1 μg/ml as follows: OD450<0.2: −; 0.2<OD450<1: +; 1<OD450<2: ++; 2<OD450<4: +++; NT: Not Tested.
(In general: In an ELISA, binding on a coated surface is turned into a signal by an enzyme label.)

Test [9] deals with T7, N-Term Biotin-Nav1.7 (3-1) peptide, human (human, not fully specified; N-terminal biotin attached via a G4S linker).
T7 construct: ELISA peptide
T7 peptide: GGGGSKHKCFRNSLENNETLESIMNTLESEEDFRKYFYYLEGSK
Described as above. As for the experimental part: as §2, §3

The target in test [10] is T4, N-Term Biotin Nav1.7 (3-1) peptide, …. Described as above. As for the experimental part:
as §2, §3

In test [11] the target is T5, Native Nav1.7 (3-1) peptide, rat. The description is as above. As for the experimental part: as §2, §3

B1: H1H1008B (antibody, V domains shown)
VH: EVQLVQSGPGLVKSSETLSLKCTVSGGSISSSGYYWGWIRQPPGKGLEWIGSIHRSGSTFYNPSLKSRVTISVDTSKSQFSLRLTSVTAADTSVYFCGRHGRDYYYGMDVWGQGTTVTVSS
VL: DIQMTQSPSSVSASVGDRVTITCRSSQDINNWLVWYQQKPGKAPKVLIYGASRLQSGVPSRFSGSGSGTDFTLTISSLQPEDFATYYCQQANSFPLTFGGGTKLEIKR
notes: Fully human antibody; also called H4H1008B
Regarding B1, the “% Binding Nav1.7” value in [1] is 12.5%. Moreover, the Kd was 1.11 nM in [2]; 4.31 nM in test [3]; 14.8 nM in test [4]; 4.67 nM in [5]; 0.123 nM in [6]. The t1/2 worked out at 17.5 min in [2]; 4 min in test [3]; 1.3 min in [4]; 3.1 min in test [5]; 84.2 min in test [6]. Besides, in [7], the “Current blocking (Average % inhibition), IonWorks Quattro, 223 nM antibody” value (“Current blocking (Average % inhibition)” for short) came out at 38%. The OD450 in test [8], in test [9], in test [10] and in test [11] was 2 to 4 od in each case.

B2: H1H1019B (antibody, V domains shown)
VH: EVQLVESGPGLVKPSETLSLKCTVSGGSIRSSGYYWGWIRQPPGKGLEWIGSIHHSGSTYYNPSLKSRVTISVDTSKSQFSLRLTSVTAADTAVYYCGRHGRDYYYGMDVWGQGTTVTVSS
VL: AIQLTQSPSSLSASVGDRVTITCRASQDINNWLVWYQQKPGKAPKLLIYAASSLQSGVPSRFSGSGSGTDFTLTISSLQPEDFATYYCQQANSFPLTFGGGTKVDIKR
Regarding B2, the “% Binding Nav1.7” value in [1] was determined as 28.1%. For the same molecule, the Kd in test [2] turned out to be 12.6 nM; in [3] it was 113 nM; in test [4] it was 351 nM; in test [5] it was 101 nM; in test [6], 0.231 nM. Also, the t1/2 in test [2] was determined as 2.8 min; in test [3], 0.44 min; in test [4] it was 0.083 min; in test [5], 0.11 min; in test [6] it was 29.8 min. The “Current blocking (Average % inhibition)” value in test [7] is 24%. Besides, the OD450 in test [8], in test [9], in test [10] and in test [11] was 2 to 4 od each time.

B3: H4H367B (antibody, V domains shown)
VH: QVQLVQSGGGVVQPGRSLRLSCAASGFSFSSFGMHWVRQAPGKGLEWVAVISYGGINKHYSDSVKGRFTISRDDSKNTLYLQMNSLRAEDTAVYYCAKREGYRYAYDYWGQGTLVTVSS
VL: DIQMTQSPSSLSASVGDRVTITCRASQGISNYLAWFQQKPGKAPKSLIYGASSLQSGVPSKFSGSGSGTDFTLTISSLQPEDFATYYCQQYNSYPLTFGGGTKVEIKR
For the molecule B3, in [1], the “% Binding Nav1.7” value worked out at 15.8%. The Kd in test [2] was 0.63 nM; in [3], 4.67 nM; in test [4], 107 nM; in [5] it was 88 nM; in [6] it was 0.341 nM. The t1/2 in [2] was determined as 23.7 min; in [3], 10.5 min; in test [4], 0.59 min; in test [5], 0.42 min; in test [6], 94 min. Moreover, the “Current blocking (Average % inhibition)” value in test [7] was -35%. The OD450 in test [8], in test [9], in [10] and in test [11] was 2 to 4 od throughout.

By Kd is commonly meant the equilibrium constant for the complex coming apart. Read a high Kd as weaker binding.

For the origin of these results see patent publication US20160024208A1 (Regeneron, published 2016).
